The target in assay [1] is coagulation factor II thrombin receptor/protease activated receptor 1 (F2R/PAR1) (human (endogenous in ES-2)) (UniProt P25116).
For assay [2] the target is unchanged. This is another data set of the same source.

Where no end group is shown, it is not given here.

UniProt P25116, sequence (P25116 42-425): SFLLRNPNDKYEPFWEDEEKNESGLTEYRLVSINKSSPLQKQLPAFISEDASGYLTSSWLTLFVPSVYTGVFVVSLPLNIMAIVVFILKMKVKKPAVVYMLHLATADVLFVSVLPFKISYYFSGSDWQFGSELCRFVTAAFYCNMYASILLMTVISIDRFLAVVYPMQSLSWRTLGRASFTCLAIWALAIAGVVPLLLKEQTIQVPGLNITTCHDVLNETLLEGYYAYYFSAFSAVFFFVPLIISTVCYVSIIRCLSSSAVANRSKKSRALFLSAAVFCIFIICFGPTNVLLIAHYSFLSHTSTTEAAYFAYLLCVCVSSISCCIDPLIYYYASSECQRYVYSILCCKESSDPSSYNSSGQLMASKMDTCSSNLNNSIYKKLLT

B1: … conjugated to DSPE-PEG-maleimide, on doxorubicin-loaded lipid nanoparticles (LNP-Peptide-DOX) (peptide)
peptide: TFLLRGSGSGSC(DSPE‑PEG2000‑maleimide)
modifications: also: on doxorubicin-loaded lipid nanoparticles
In assay [1], B1 gave a cytotoxicity on ES-2 cells, MTT assay, 24 h; IC50 as DOX concentration; LNP-DOX without peptide 10.16 µM, free DOX 0.6 µM of 1260 nM. The molecule further displayed a cellular uptake: DOX fluorescence (MFI per cell) of ES-2 cells by flow cytometry after 1 h at 37 °C, about 86 µM drug; LNP-DOX without peptide approximately 2000 in assay [2] of 6000 MFI.

Values taken from publication PMC12835398.
